Source: publication PMC8688422

What was measured:
galectin-1 C3S = galectin-1 C3S (UniProt P09382)
galectin-1 = galectin-1 (UniProt P09382); experiment: SPR; BIAcore 1000, galectin-1 amine-coupled to CM5 chip, analyte injected at different concentrations, 25 °C, HBS-EP (10 mM HEPES, 150 mM NaCl, 3 mM EDTA, 0.005% P20) pH 7.4; single association, biphasic dissociation

fluorescence anisotropy: binding affinity of galectin-1 C3S for the fluorescein-tagged tdga-probe with 8 µM CXCL4 against galectin-1 alone (galectin-1 C3S): 10 fold
fluorescence anisotropy: inhibitory potency of asialofetuin (ASF) on the galectin-1 C3S/tdga-probe interaction with 8 µM CXCL4 against without (galectin-1 C3S): > 600 fold
K1 (kd1/ka) (galectin-1): 9 µM
K2 (kd2/ka) (galectin-1): 483 nM
kd1 (first phase of the biphasic dissociation) (galectin-1): 0.092 s⁻¹
kd2 (second phase of the biphasic dissociation) (galectin-1): 0.005 s⁻¹
kon (galectin-1): 10200 M⁻¹ s⁻¹
stoichiometry N (CXCL4 per galectin-1) (galectin-1): 2
Substance: platelet factor 4 (PF4/CXCL4) (ligand)
